This assay deals with GI (K607T)-mCherry-CAAX (Arabidopsis thaliana) (UniProt Q9SQI2). As to the kind of experiment: cell-based or functional assay.
UniProt Q9SQI2, sequence (Q9SQI2 other isoform, or with tags, fused parts or gaps K607T K607T): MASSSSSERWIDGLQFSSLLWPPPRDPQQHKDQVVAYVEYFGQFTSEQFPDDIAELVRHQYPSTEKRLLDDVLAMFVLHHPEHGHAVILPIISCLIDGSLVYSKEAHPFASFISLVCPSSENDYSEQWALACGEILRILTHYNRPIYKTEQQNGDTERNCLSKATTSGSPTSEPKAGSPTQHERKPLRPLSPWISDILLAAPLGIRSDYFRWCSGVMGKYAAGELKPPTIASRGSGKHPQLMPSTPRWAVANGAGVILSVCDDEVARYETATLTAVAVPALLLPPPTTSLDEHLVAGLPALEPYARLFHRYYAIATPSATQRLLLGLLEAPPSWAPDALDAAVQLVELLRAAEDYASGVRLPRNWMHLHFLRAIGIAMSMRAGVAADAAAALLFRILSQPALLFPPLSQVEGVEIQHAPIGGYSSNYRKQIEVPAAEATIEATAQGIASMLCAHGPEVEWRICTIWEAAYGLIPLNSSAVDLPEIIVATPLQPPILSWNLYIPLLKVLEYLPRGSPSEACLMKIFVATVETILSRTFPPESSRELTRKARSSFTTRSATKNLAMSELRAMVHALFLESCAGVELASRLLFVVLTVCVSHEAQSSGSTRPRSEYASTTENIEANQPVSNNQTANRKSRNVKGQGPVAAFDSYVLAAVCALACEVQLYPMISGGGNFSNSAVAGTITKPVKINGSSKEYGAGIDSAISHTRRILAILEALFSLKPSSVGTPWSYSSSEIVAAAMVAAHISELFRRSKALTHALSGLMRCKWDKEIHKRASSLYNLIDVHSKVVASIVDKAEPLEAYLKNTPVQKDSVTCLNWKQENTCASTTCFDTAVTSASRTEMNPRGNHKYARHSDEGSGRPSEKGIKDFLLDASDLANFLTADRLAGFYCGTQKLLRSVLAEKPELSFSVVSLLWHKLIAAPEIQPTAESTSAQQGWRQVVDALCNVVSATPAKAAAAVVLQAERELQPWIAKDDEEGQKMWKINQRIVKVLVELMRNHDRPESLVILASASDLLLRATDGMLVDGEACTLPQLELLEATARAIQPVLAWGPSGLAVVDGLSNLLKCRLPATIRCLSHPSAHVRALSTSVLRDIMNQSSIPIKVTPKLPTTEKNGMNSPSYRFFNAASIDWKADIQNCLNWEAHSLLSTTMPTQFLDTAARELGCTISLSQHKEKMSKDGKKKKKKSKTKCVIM

As to “NES-FKF1(K15T)-YFP-linker-Rac1ca (FKF1-Rac) G128D (from UniProt P63000 1-188)”, the percentage of cells with lamellipodia, increase upon illumination came to 87%.

The substance “NES-FKF1(K15T)-YFP-linker-Rac1ca (FKF1-Rac) WT (from UniProt P63000 1-188)” displayed a percentage of cells with lamellipodia, increase upon illumination of 46%.

Values taken from patent publication US20120237966A1.
